# Key:
# K48-linked diubiquitin = K48-linked diubiquitin (UniProt P0CG48); assay: ITC; conditions: domain or fragment
# K63-linked diubiquitin = K63-linked diubiquitin (UniProt P0CG48); assay: ITC; conditions: domain or fragment
# Sequence of GB1-HSJ1a-UIM12 (UIM domain of HSJ1a, residues 206-272, fused to GB1) (P25686 206-272): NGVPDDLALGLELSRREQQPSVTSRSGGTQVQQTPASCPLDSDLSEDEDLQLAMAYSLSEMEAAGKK
substance,measurement,setting,value
"GB1-HSJ1a-UIM12 (UIM domain of HSJ1a, residues 206-272, fused to GB1) (from UniProt P25686-2 206-272)",Kd,K48-linked diubiquitin,57 µM
same,Kd,K63-linked diubiquitin,153 µM

# Source: article PMC3098244
